# Source: publication PMC10247153, “Chromatin Sensing by the Auxiliary Domains of KDM5C Regulates Its Demethylase Activity and Is Disrupted by X-linked Intellectual Disability Mutations” (Journal of molecular biology, 2022)
# Changes are numbered by the printed parent chain. No end group written: not given here. Me3 = trimethyl; Me2 = dimethyl
# T1: PHD1 (KDM5C residues 318–378) (human, UniProt P41229-1 318-378)
# T1 construct: KDM5C, human, PHD1 domain, residues 318-378; 15N-labelled (or 15N,13C) for NMR; also called PHD1 domain of KDM5C; source: E. coli BL21(DE3), M9 minimal medium, purified (Ni-NTA, MonoQ flow-through); not shown: 6xHis, N-terminal, cleaved; SUMO (Smt3), N-terminal, cleaved
# T1 sequence (looked up): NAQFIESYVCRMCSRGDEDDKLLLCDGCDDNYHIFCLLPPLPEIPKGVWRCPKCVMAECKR
# T2: PHD1 D343A mutant (human, UniProt P41229-1 318-378, D343A)
# T2 construct: KDM5C, human, PHD1 domain, residues 318-378 (limits as told for wild-type PHD1)
# T2 sequence (looked up): T1 sequence (looked up) with D26A
# T3: Avitag-PHD1 (human, UniProt P41229-1 318-378, biotin on the Avitag (BirA co-expression))
# T3 construct: KDM5C, human, PHD1 domain, residues 318-378; 6xHis-SUMO-Avitag-(GS)2-PHD1 before cleavage by SenP1; also called biotinylated Avitag-PHD1; Avitag-(GS)2-PHD1; source: E. coli BL21(DE3), co-expressed with BirA, purified (Ni-NTA, MonoQ flow-through); not shown: 6xHis, N-terminal, cleaved; SUMO (Smt3), N-terminal, cleaved; Avitag-(GS)2, N-terminal, kept
# T3 sequence (looked up): T1 sequence (looked up)
# B1: H3 (1–18) tail peptide (peptide, UniProt P68431 2-19, looked up)
# peptide: ARTKQTARKSTGGKAPRK
# notes: histone H3 N-terminal tail, residues 1-18; also called H3 (1–18) peptide; H3K4me0 (1–18); source: synthetic peptide (GenScript)
# B2: H3K4me3 (1–18) peptide (peptide, UniProt P68431 2-19, looked up)
# peptide: ARTK(Me3)QTARKSTGGKAPRK
# notes: histone H3 N-terminal tail, residues 1-18; source: synthetic peptide (GenScript)
# B3: H3K4me2 (1–18) peptide (peptide, UniProt P68431 2-19, looked up)
# peptide: ARTK(Me2)QTARKSTGGKAPRK
# notes: as for B2
# B4: H3K4me1 (1–18) peptide (peptide, UniProt P68431 2-19, looked up)
# peptide: ARTK(Me)QTARKSTGGKAPRK
# notes: as for B2
# B5: KDM5C (295–314) peptide (peptide)
# peptide: Ac-KEELSHSPEPCTKMTMRLRR-NH2
# notes: KDM5C, human, ARID-PHD1 linker, residues 295-314; source: synthetic peptide (GenScript)
# Tests used:
# Conditions in all cases: both partners purified
# [1] = molecular target: T1, PHD1 (KDM5C residues 318–378); assay: NMR titration; 2D 1H-15N HSQC of 200 μM 15N-PHD1 with increasing peptide up to 1:5 PHD1:peptide; 50 mM HEPES pH 7.5, 50 mM KCl, 5 mM BME, 50 μM ZnCl2, 5% D2O, 298 K; Kd from chemical shift change of one residue (I361 or D343), quadratic binding equation
# [2] = molecular target: T2, PHD1 D343A mutant; assay: as above
# [3] = molecular target: T3, Avitag-PHD1; assay: BLI; biotinylated Avitag-PHD1 (100 nM) loaded on streptavidin biosensors; 100 μM peptide; 50 mM HEPES pH 8, 50 mM KCl, 50 μM ZnCl2, 5 mM BME, 0.05% Tween-20; 25 °C; two phase exponential fit
binder,measurement,setting,value
Ac-QSVQPSKFNSYGRRAKRLQP-NH2 (source: synthetic peptide (GenScript)) [KDM5C (199–218) peptide],fold lower affinity than the H3 tail,[1],~3 fold
B1,Kd,[1],130 µM
same,fold decrease in affinity against wild-type PHD1,[2],≥ 10 fold
B2,binding result,[1],binds
B3,binding result,[1],binds
B4,binding result,[1],binds
B5,binding result,[3],binds
